Our source for the KM of SUMOylation of RanGAP* (no scaffolds) and fold concentration in droplets values is paper doi:10.1101/2020.09.15.299115.

The target of test [1] is mCherry-FKBP-Ubc9 (UniProt P63279).
Test [2] has the same target. Nature of the test: partitioning into condensates.

On to “FKBP-EGFP-RanGAP* (RanGAP C-terminal domain 398-587, F562A) (from UniProt P46060 398-587) (domain or fragment)”, for which the KM of SUMOylation of RanGAP* (no scaffolds) with mCherry-FKBP-Ubc9 [1] is 70 µM.

B1: E1-EGFP (SAE1/2 heterodimer) (complex)
chain 1: MVEKEEAGGGISEEEAAQYDRQIRLWGLEAQKRLRASRVLLVGLKGLGAEIAKNLILAGVKGLTMLDHEQVTPEDPGAQFLIRTGSVGRNRAEASLERAQNLNPMVDVKVDTEDIEKKPESFFTQFDAVCLTCCSRDVIVKVDQICHKNSIKFFTGDVFGYHGYTFANLGEHEFVEEKTKVAKVSQGVEDGPDTKRAKLDSSETTMVKKKVVFCPVKEALEVDWSSEKAKAALKRTTSDYFLLQVLLKFRTDKGRDPSSDTYEEDSELLLQIRNDVLDSLGISPDLLPEDFVRYCFSEMAPVCAVVGGILAQEIVKALSQRDPPHNNFFFFDGMKGNGIVECLGPK
chain 2: MALSRGLPRELAEAVAGGRVLVVGAGGIGCELLKNLVLTGFSHIDLIDLDTIDVSNLNRQFLFQKKHVGRSKAQVAKESVLQFYPKANIVAYHDSIMNPDYNVEFFRQFILVMNALDNRAARNHVNRMCLAADVPLIESGTAGYLGQVTTIKKGVTECYECHPKPTQRTFPGCTIRNTPSEPIHCIVWAKYLFNQLFGEEDADQEVSPDRADPEAAWEPTEAEARARASNEDGDIKRISTKEWAKSTGYDPVKLFTKLFKDDIRYLLTMDKLWRKRKPPVPLDWAEVQSQGEETNASDQQNEPQLGLKDQQVLDVKSYARLFSKSIETLRVHLAEKGDGAELIWDKDDPSAMDFVTSAANLRMHIFSMNMKSRFDIKSMAGNIIPAIATTNAVIAGLIVLEGLKILSGKIDQCRTIFLNKQPNPRKKLLVPCALDPPNPNCYVCASKPEVTVRLNVHKVTVLTLQDKIVKEKFAMVAPDVQIEDGKGTILISSEEGETEANNHKKLSEFGIRNGSRLQADDFLQDYTLLINILHSEDLGKDVEFEVVGDAPEKVGPKQAEDAAKSITNGSDDGAQPSTSTAQEQDDVLIVDSDEEDSSNNADVSEEERSRKRKLDEKENLSAKRSRIEQKEELDDVIALD
In the case of B1, the fold concentration in droplets in the test with mCherry-FKBP-Ubc9 [2] worked out at 1.9 fold.
